Measured values published in article PMC7371702.
Substitutions are numbered along the chain they refer to. Names may count otherwise.

B1: Soluble streptavidin-binding peptide (SBP)-tagged mouse Ly6H (natural protein)
chain: LWCQDCTLANSSHCAPKQCQPTDTVCASVRITDPSSSRKDHSVNKMCASSCDFVKRHFFSDYLMGFINSGILKVDVDCCEKDLCN
B2: Soluble SBP-tagged mouse Ly6H R38A mutant (natural protein)
chain: B1 chain with R38A

Experiments:
[1] = molecular target: YFP-tagged α7 nicotinic acetylcholine receptor (human CHRNA7 with YFP fused into the M3-M4 loop) (human) (UniProt P36544)
[2] = molecular target: YFP-tagged α7 nicotinic acetylcholine receptor (human CHRNA7 with YFP fused into the M3-M4 loop) (human) (UniProt P36544); remark: listed apart in the source

Chain of UniProt P36544 (P36544 23-502): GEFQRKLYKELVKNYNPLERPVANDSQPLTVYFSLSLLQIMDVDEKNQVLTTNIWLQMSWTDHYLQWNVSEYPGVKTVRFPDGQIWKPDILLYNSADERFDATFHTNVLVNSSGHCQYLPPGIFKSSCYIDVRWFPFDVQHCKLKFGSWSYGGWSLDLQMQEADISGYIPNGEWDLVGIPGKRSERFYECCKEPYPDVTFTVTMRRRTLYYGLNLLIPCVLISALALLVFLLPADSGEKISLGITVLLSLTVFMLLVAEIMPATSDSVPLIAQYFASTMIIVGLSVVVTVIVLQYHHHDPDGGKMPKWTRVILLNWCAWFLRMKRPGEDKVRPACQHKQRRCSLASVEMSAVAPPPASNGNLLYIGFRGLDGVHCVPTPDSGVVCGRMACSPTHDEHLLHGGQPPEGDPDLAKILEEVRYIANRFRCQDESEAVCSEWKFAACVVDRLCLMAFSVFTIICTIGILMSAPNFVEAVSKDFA

Row | Binder | inhibition of ligand-evoked α7 nAChR current in TARO cells by exogenously added soluble Ly6H-SBP (2.5 μM) [1] | inhibitory ratio: post-stimulation peak amplitude divided by pre-stimulation peak amplitude of choline (30 μM) + PNU120596 (1 μM)-evoked current in TARO cells, 2.5 μM soluble protein applied for 3 min [2]
1 | B1 | 14% | 82.7%
2 | B2 |  | 100%
